From patent US20230349919A1 come the findings set out here.

Test [1] concerns the target Ole e 1 (olive) (UniProt P19963). The test is described as follows: barcoded antigen sequencing of single IgE PCs with trapped IgE [cont.].
Test [2] addresses Der p 1 (house dust mite) (UniProt P08176). The description is as above.
Test [3] has as its target Der p 2 (house dust mite) (UniProt P49278). The test is described as above.
For test [4], the target named is Der f 1 (house dust mite) (UniProt P16311). Described as above.
Sequence of Der f 1 (house dust mite) (P16311 99-321 limits assumed): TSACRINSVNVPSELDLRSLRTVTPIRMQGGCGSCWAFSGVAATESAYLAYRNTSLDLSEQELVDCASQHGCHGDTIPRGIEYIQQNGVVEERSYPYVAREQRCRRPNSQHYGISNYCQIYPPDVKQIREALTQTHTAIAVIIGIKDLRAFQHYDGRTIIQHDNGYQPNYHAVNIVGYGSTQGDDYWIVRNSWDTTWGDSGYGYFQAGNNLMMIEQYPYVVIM
Test [5] has as its target Ole e 1 (olive) (UniProt P19963). The experiment in a line: barcoded antigen sequencing of single IgE PCs with trapped IgE.
Test [6] has as its target Der p 1 (house dust mite) (UniProt P08176). The description is as above.
For test [7], the target named is Der p 2 (house dust mite) (UniProt P49278). Described as above.
Sequence of Der p 2 (house dust mite) (P49278 18-146 limits assumed): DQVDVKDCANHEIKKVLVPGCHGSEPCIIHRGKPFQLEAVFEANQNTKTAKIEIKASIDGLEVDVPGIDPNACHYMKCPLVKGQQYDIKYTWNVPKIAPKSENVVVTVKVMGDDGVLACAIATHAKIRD
The target in test [8] is Der f 1 (house dust mite) (UniProt P16311). The test is described as above.
The target in test [9] is Der p 1 (house dust mite) (UniProt P08176). The experiment in a line: antigen specificity score against Ole e 1 from barcode counts of single IgE PCs [cont.].
Sequence of Der p 1 (house dust mite) (P08176 99-320 limits assumed): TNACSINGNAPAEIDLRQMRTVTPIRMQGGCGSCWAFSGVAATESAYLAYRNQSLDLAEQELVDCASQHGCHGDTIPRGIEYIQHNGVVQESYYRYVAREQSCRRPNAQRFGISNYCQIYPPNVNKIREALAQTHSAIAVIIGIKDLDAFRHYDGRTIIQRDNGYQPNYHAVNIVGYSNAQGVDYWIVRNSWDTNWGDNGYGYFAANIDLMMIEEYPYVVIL
In test [10] the target is Der p 2 (house dust mite) (UniProt P49278). The description is as above.
Test [11] addresses Der f 1 (house dust mite) (UniProt P16311). The description is as above.
Test [12] addresses Der p 1 (house dust mite) (UniProt P08176). The experiment in a line: barcoded-antigen count on source cell.
The target in test [13] is Der f 1 (house dust mite) (UniProt P16311). The test is described as follows: barcoded-antigen count on source cell.
Test [14] has as its target Der p 1 (house dust mite) (UniProt P08176). The experiment in a line: centered log-ratio of barcode count.
The target of test [15] is Der f 1 (house dust mite) (UniProt P16311). The experiment in a line: centered log-ratio of barcode count.
For test [16], the target named is Der p 1 (house dust mite) (UniProt P08176). The test is described as follows: barcode rank score against control Ole e 1.
The target of test [17] is Der f 1 (house dust mite) (UniProt P16311). The experiment in a line: barcode rank score against control Ole e 1.

Sequence of Ole e 1 (olive) (P19963 whole entry): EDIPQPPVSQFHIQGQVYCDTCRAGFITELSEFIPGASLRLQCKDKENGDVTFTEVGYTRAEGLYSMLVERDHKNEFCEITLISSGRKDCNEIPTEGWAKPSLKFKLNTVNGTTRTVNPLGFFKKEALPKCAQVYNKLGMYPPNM

B1: Candidate ID 7 (antibody, V domains shown)
VH: QVLLKESGPGLVAPSQSLSITCTVSGFSLTSYGVSWVRQPPGKGLEWLGVIWGDGNTDYHSALISRLSIRKDNSKSQVFLKLNSLQTDDTATYYCAIGSPFAYWGQGTLVTVSA
VL: DVLMTQTPLSLPVSLGDQVSISCRSSQNIVHSTGNTYLEWYLQKPGQSPKLLIFKVSNRLSGVPDRFSGSGSGTDFTLNISRVEAADLGIYSCFQGSHVPFTFGSGTKLEIK
As for B1, the Normalized Barcode Count in [1] was -1.13; in test [2], 0.862; in test [3], 0.655; in test [4], 1.18. Besides, the Raw Antigen Barcode Count is 0 in test [5], 29 in test [6], 22 in [7] and 32 in test [8]. Further, the figures for the Antigen Score in test [9], in [10] and in [11] were 0.89, 0.837 and 0.97, respectively.

B2: Candidate ID 13 (antibody, V domains shown)
VH: QAYLQQSGAELVRPGASVKMSCKASGYTFISYNMHWVKQTRRQGLEWIGAIYPGNGDTSYNQKFKGKATLTVDKSSSTAYMQLSSLTSEDSAVYFCARWDYYGSSYGAYWGQGTLVTVSA
VL: DIQMTQSPASLSVSVGETVTITCRASENIYSNLAWYQQKQGKSPQLLVYAATNLADGVPSRFSGSGSGTQYSLKINSLQSEDFGSYYCQHFWGTPWTFGGGTKLEIK
B2 gave a Normalized Barcode Count in test [1] of -0.434. In test [5], this molecule yielded a Raw Antigen Barcode Count of 1.

B3: Candidate ID 16 (antibody, V domains shown)
VH: EVHLQQSGPDLVKPGASVMISCQASGYSFTAYYINWVKQSPEKSLEWIGEINPGSGGVIYNRKFEAKATLIVDKSSNTAFMLLTRLTSEDSAIYYCARKGFYQFDYWGQGTTLTVSS
VL: SVVMTQIPKFLVVSAGDRVTITCKASQSVNDGVFWYQQKTGQSPKLVIYHTSNRYTGVSDRFTGSGYGTEFTFTISAVQSEDLAIYFCQQDYTSPLTFGGGTRLEIK
With B3, in [1], the Normalized Barcode Count amounted to 0.603. The same molecule displayed a Raw Antigen Barcode Count in [5] of 3.

B4: Candidate ID 21 (antibody, V domains shown)
VH: QVQLQQSGPELVKPGASVKISCKAPGNAFSYSWMNWVKQRPGKGLEWVGRIYPGDGDTNYNGKFMGKATLTADKSSNTAYIQLSSLTSEDSAVYFCARSGGGTLYWYFDVWGTGTTVTVSS
VL: DIVMTQSPSSLALSVGQKVTMNCRSSQSLLNSFNQKNYLAWFQQKPGQSPRLLIYFASTRESGVPDRFIGSGSGTDFTLTISSVQAEDLADYFCQQHYNTPLTFGAGTTLELK
For the molecule B4, in test [1], the Normalized Barcode Count is 0.826. In test [5], this molecule had a Raw Antigen Barcode Count of 4.

B5: Candidate ID 9 (antibody, V domains shown)
VH: EVQLQQSGPELVKPGASVKISCKASGYTFTDYYMNWVKQSHGKSLEWIGDINPNNGGTSYNQKFKGKATLTVDKSSSTAYMELRSLTSEDSAVYYCAYGPPRGPPWFAYWGQGTLVTVSA
VL: DIVLTQSPASLAVSLGQRATISCRASKSVSTSGYSYMHWYQQKPGQPPKLLIYLASNLESGVPARFSGSGSGTDFTLNIHPVEEEDAATYYCQHSRELPWTFGGGTKLEIK
On to B5, for which the Normalized Barcode Count was found to be 0.029 in test [1], 0.981 in test [2], 1.62 in [3] and 0.82 in test [4]. Besides, the Raw Antigen Barcode Count came to 1 in test [5], 16 in test [6], 46 in [7] and 15 in test [8]. The Antigen Score is 0.775 in [9], 0.858 in test [10] and 0.765 in [11].

B6: IgE mAb 13_2 (antibody, V domains shown)
VH: B5 VH
VL: B5 VL
As to B6, the Derp1 ab raw in [12] is 16 counts. Also, in test [13], the Derf1 ab raw stood at 15 counts. Also, the Derp1 ab clr in [14] came out at 0.981. The Derf1 ab clr in [15] was 0.82. In test [16], this molecule showed a Derp1 ab rank of 0.775. Moreover, the Derf1 ab rank in [17] worked out at 0.765.
